# In patent US20240400686A1 (CITY OF HOPE, published 2024):
# Where two headings read alike, the source gives them in different places. Where no end group is shown, it is not given here. [ ]: non-standard residue; d: D form. pGlu = O=C1CC[C@@H](C(=O)O)N1
# T1: CD3 epsilon N-terminal peptide (SEQ ID NO:13) (human and cynomolgus monkey (first …))
# T1 construct: also called CD3 peptide; CD3 epsilon peptide
# T1 peptide: [pGlu]DGNEEMGGITQTPYK
# Columns and labels:
# [1] = target: T2, recombinant human CD3epsilon/CD3gamma extracellular domain fused with human IgA1.Fc (human); assay: SPR, Biacore T200: human CD3-IgA immobilised on a CM5 chip, antibody as analyte
# T2 construct: also called human CD3e/CD3g proteins; human CD3 proteins
# Protocol: Binding affinities for the different antibodies of interest were measured by surface plasmon resonance (SPR), using a Biacore T200 (GE Healthcare). Human CD3-IgA was immobilized to 200 RU on a CM5 (GE Life Sciences) chip using NHS chemistry. Analytes (CD3 antibodies) were diluted 2× in concentrations (from 12.5 nM to 0.125 nM) and flown over chip at a flow rate of 30 µl/min with HBS-EP+ buffer. Data were analyzed using Biacore T200 Evaluation software v3.0.
# Cyno CD3εδ = Cyno CD3εδ (cynomolgus monkey); assay: SPR, sensorgrams at 3-100 nM; set-up not given
# Cyno CD3εδ (cynomolgus monkey), sequence (Q95LI5 22-117, stated change not applied, chain 1 of 2): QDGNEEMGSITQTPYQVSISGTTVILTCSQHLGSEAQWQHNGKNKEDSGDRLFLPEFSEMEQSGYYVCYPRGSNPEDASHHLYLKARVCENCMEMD
# Cyno CD3εδ (cynomolgus monkey), sequence (Q95LI8 22-105, stated change not applied, chain 2 of 2, further chain): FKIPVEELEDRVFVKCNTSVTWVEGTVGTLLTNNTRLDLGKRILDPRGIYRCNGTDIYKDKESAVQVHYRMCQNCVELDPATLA
# [2] = target: T1, CD3 epsilon N-terminal peptide (SEQ ID …); assay: SPR on a CD3 peptide, concentration series 3-300 nM (sensorgrams in FIG. 25B)
# [3] = target: T1, CD3 epsilon N-terminal peptide (SEQ ID …); assay: SPR on a CD3 peptide, concentration series 3-300 nM
# [4] = target: T1, CD3 epsilon N-terminal peptide (SEQ ID …); assay: as above
# [5] = target: T1, CD3 epsilon N-terminal peptide (SEQ ID …); assay: as above
# [6] = target: T1, CD3 epsilon N-terminal peptide (SEQ ID …); assay: SPR on a CD3 peptide, concentration series 3-300 nM (sensorgrams in FIG. 25A)
binder,measurement,setting,value
"antibody 3F11 (antibody, V domains shown, Tested as mouse hybridoma antibody (culture supernatant or mAb); also called Clone 3F11) VH: QVQLQQSGPDLVRPGASVKMSCKASGYTFTNYYVHWLNQRPGQGLEWIGWIYPGDGSTKFNEKFKGKTTLTADKSSSTAYILLSSLTSADSAIYFCTRDAGYYFDVWGAGTTVTVSS VL: DIVMSQSPSSLAVSAGEKVTISCKSSQSLLNNRTRKNYLAWYQQKPGQSPKLLIYWASTRESGVPDRFTGSGSGTDFTLTISSVQAEDLAVYYCKQSYILRTFGGGTKLEIK",koff,[1],0.0034 s⁻¹
same,kon,[1],1.12e+07 M⁻¹ s⁻¹
"mouse antibody 26H8 (antibody, V domains shown, Tested as mouse hybridoma antibody (culture supernatant or mAb); also called Clone 26H8; 261H8) VH: QVQLQQSGPELVKPGASVRMSCKASGYTFTNYYIHWVRQRPGQGLEWIGWIYCGDGSTKFNEQFKDRTTLTADHSSSTAYMLLSSLTSEDSAIYFCARDWAGSYFFDFWGQGTTLTVSS VL: DIVMSQSPSSLAVSAGEKVTMSCKSSQSLLNSRTRKNYLAWYQQKPGQSPKLLIYWASTRESGVPDRFTGSGSGTDFTLTISSVQAEDLAVYYCKQSYILRTFGGGTKLEIK",koff,[1],0.00062 s⁻¹
same,kon,[1],2.3e+06 M⁻¹ s⁻¹
"humanized 26H8 Fab (Fab, V domains shown, a Fab; also called h26H8 Fab; h26H8) VH: QVQLQESGPGLVKPSETLSLTCTASGYTFTNYYIHWVRQSPGKGLEWIGWIYCGDGSTKFNEQFKDRTTLSADHSKTQASLKLSSVTAADTAIYFCARDWAGSYFFDFWGQGTMVTVSS VL: DIQMTQSPSSLSASVGDRVTITCKSSQSLLNSRTRKNYLAWYQQKPGKAPKLLIYWASTRESGVPSRFSGSGSGTDFTFTISSLQPEDIATYYCKQSYILRTFGGGTKVEIKR",Kd,Cyno CD3εδ,36 nM
same,koff,Cyno CD3εδ,0.031 s⁻¹
same,kon,Cyno CD3εδ,870000 M⁻¹ s⁻¹
same,Kd,[2],51.6 nM
same,koff,[2],0.0322 s⁻¹
same,kon,[2],623000 M⁻¹ s⁻¹
"H26H8 Fab H35F (Fab, V domains shown, Fab' fragment; phenylalanine at position 35 of the heavy chain variable domain; also called h26H8 H35F; h26H8 H35F Fab') VH: QVQLQESGPGLVKPSETLSLTCTASGYTFTNYYIFWVRQSPGKGLEWIGWIYCGDGSTKFNEQFKDRTTLSADHSKTQASLKLSSVTAADTAIYFCARDWAGSYFFDFWGQGTMVTVSS VL: DIQMTQSPSSLSASVGDRVTITCKSSQSLLNSRTRKNYLAWYQQKPGKAPKLLIYWASTRESGVPSRFSGSGSGTDFTFTISSLQPEDIATYYCKQSYILRTFGGGTKVEIKR",binding result,[3],no binding (tested: 300 nM)
"H26H8 Fab Y33S (Fab, V domains shown, Fab' fragment; serine at position 33 of the heavy chain variable domain; also called h26H8 Y33S; h26H8 Y33S Fab') VH: QVQLQESGPGLVKPSETLSLTCTASGYTFTNYSIHWVRQSPGKGLEWIGWIYCGDGSTKFNEQFKDRTTLSADHSKTQASLKLSSVTAADTAIYFCARDWAGSYFFDFWGQGTMVTVSS VL: DIQMTQSPSSLSASVGDRVTITCKSSQSLLNSRTRKNYLAWYQQKPGKAPKLLIYWASTRESGVPSRFSGSGSGTDFTFTISSLQPEDIATYYCKQSYILRTFGGGTKVEIKR",binding result,[4],no binding (tested: 300 nM)
"H26H8 Fab H35Y (Fab, V domains shown, Fab' fragment; tyrosine at position 35 of the heavy chain variable domain; also called h26H8 H35Y; h26H8 H35Y Fab') VH: QVQLQESGPGLVKPSETLSLTCTASGYTFTNYYIYWVRQSPGKGLEWIGWIYCGDGSTKFNEQFKDRTTLSADHSKTQASLKLSSVTAADTAIYFCARDWAGSYFFDFWGQGTMVTVSS VL: DIQMTQSPSSLSASVGDRVTITCKSSQSLLNSRTRKNYLAWYQQKPGKAPKLLIYWASTRESGVPSRFSGSGSGTDFTFTISSLQPEDIATYYCKQSYILRTFGGGTKVEIKR",binding result,[5],no binding (tested: 300 nM)
"H26H8 Fab C53S (Fab, V domains shown, Fab' fragment; serine at position 53 of the heavy chain variable domain; also called h26H8 C53S) VH: QVQLQESGPGLVKPSETLSLTCTASGYTFTNYYIHWVRQSPGKGLEWIGWIYSGDGSTKFNEQFKDRTTLSADHSKTQASLKLSSVTAADTAIYFCARDWAGSYFFDFWGQGTMVTVSS VL: DIQMTQSPSSLSASVGDRVTITCKSSQSLLNSRTRKNYLAWYQQKPGKAPKLLIYWASTRESGVPSRFSGSGSGTDFTFTISSLQPEDIATYYCKQSYILRTFGGGTKVEIKR",Kd,[6],116 nM
same,koff,[6],0.0658 s⁻¹
same,kon,[6],569000 M⁻¹ s⁻¹
